Measurements: PMC7458321

Target: GST F52(pBPa)
Assay: cross-linking; photocrosslinking through pBPa in whole N. meningitidis cells, UV light for the indicated times up to 2 hours; bacterial extracts on Western blot with anti-GST mAb

Sequence of GST F52(pBPa) (P08515 2-218): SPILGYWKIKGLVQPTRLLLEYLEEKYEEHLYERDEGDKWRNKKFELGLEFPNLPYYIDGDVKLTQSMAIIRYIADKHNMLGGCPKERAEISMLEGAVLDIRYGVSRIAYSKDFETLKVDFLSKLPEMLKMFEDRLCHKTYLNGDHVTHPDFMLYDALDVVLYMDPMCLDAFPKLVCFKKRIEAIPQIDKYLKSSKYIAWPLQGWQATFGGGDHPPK

- stoichiometry N: 2
Substance: GST F52(pBPa) (enzyme)
